The record followed here is article PMC3072757 (Journal of molecular biology, 2010).

Numbering of substitutions follows the chain as printed. Names may count otherwise. Like-named read-outs stand apart in the source and are kept apart here.

Series [1] concerns the molecule itself. Description: SEC. For orientation: SEC sorts molecules by how far they enter the pores of the column.
Series [2] deals with the molecule itself. Description: SEC. The source holds these as a separate data set.

B1: Recombinant wild-type human αB-crystallin (natural protein, UniProt P02511 1-175, looked up)
chain: MDIAIHHPWIRRPFFPFHSPSRLFDQFFGEHLLESDLFPTSTSLSPFYLRPPSFLRAPSWFDTGLSEMRLEKDRFSVNLDVKHFSPEELKVKVLGDVIEVHGKHEERQDEHGFISREFHRKYRIPADVDPLTITSSLSSDGVLTVNGPRKQVSGPERTIPITREEKPAVTAAPKK
B1: in “SEC [1]”, the binding result was “binds”.

B2: W9F/W60F αB-Crys (natural protein, human, UniProt P02511 1-175, looked up)
chain: B1 chain with W9F, W60F
On to B2, for which the binding result in the series “SEC [2]” is “binds”.
